Results reported in article PMC10378331, “Structural and Kinetic Characterization of the SpeG Spermidine/Spermine N-acetyltransferase from Methicillin-Resistant Staphylococcus aureus USA300” (Cells, 2023).

Experiments:
[1] = substrate: CC(=O)SCCNC(=O)CCNC(=O)[C@H](O)C(C)(C)COP(=O)(O)OP(=O)(O)OC[C@H]1O[C@@H](n2cnc3c(N)ncnc32)[C@H](O)[C@@H]1OP(=O)(O)O; assay: DTNB colorimetric CoA assay, discontinuous; type: biochemical, Staphylococcus aureus; details: Assay 2, enzyme pre-incubated with spermine, co-substrate 1.5 mM spermine (acceptor and allosteric ligand), 70 mM Bicine pH 8.0, 20 mM NaCl, 0.005% Triton X-100, 22 °C, 22.0 °C
Excerpt: (§1) DTNB colorimetric CoA assay, discontinuous on SaSpeG

[2] = substrate: NCCCCNCCCN; assay: DTNB colorimetric CoA assay, discontinuous; type: biochemical, Staphylococcus aureus; details: Assay 1 (standard), no pre-incubation with polyamine, 0.5 mM AcCoA, 70 mM Bicine pH 8.0, 20 mM NaCl, 37 °C, Hill fit
Excerpt: as §1

[3] = target: the molecule itself; assay: crystal structure; ligand-free SaSpeG, 0.1 M NaCl, 0.1 M HEPES pH 8.0, 1.6 M ammonium sulfate; one protomer in the asymmetric unit; oligomer from symmetry-related proteins and PISA analysis

Protein	K0.5 [1]	kcat [1]	kcat/Km [1]	K0.5 [2]	kcat [2]	kcat/Km [2]	stoichiometry N [3]
SaSpeG (Staphylococcus aureus subsp. aureus USA300) (protein, E. coli BL21(DE3); dodecamer by PISA) MKLRALEYSDLLFVHELNNEYSIMSYWFEEPYESLTELQHLFDKHLLDESERRFIVEDENQVVGIVELVEINYIHRNCEIQIIIKPEFSGKGYAKFAFEKAIIYAFNILNMHKIYLYVDADNKKAIHIYESQGFKTEGLLKEQFYTKGKYKDAYFMSLLKSEYIL	0.29 ± 0.01 mM	390 s⁻¹	1.3e+06 M⁻¹ s⁻¹	4.0 ± 0.1 mM	3 s⁻¹	750 M⁻¹ s⁻¹	
SpeG spermidine/spermine N-acetyltransferase from Staphylococcus aureus USA300 (enzyme, SpeG spermidine/spermine N-acetyltransferase, Staphylococcus aureus USA300, UniProt A0A0H2XGJ0; gene synthesized and cloned into pMCSG21 at the SspI site; monomer ~19.8 kDa; after TEV cleavage the residues SN would remain at the N-terminus; The number of copies differs by experiment: dodecamer from crystal symmetry and PISA, trimer/tetramer by SEC; also called SaSpeG; source: E. coli BL21 (DE3) …) MKLRALEYSDLLFVHELNNEYSIMSYWFEEPYESLTELQHLFDKHLLDESERRFIVEDENQVVGIVELVEINYIHRNCEIQIIIKPEFSGKGYAKFAFEKAIIYAFNILNMHKIYLYVDADNKKAIHIYESQGFKTEGLLKEQFYTKGKYKDAYFMSLLKSEYIL							12
